T1: SH3 domain-containing YSC84-like 1 (SH3YL1), antigen of the antibodies (UniProt Q96HL8 1-342)
T1 chain: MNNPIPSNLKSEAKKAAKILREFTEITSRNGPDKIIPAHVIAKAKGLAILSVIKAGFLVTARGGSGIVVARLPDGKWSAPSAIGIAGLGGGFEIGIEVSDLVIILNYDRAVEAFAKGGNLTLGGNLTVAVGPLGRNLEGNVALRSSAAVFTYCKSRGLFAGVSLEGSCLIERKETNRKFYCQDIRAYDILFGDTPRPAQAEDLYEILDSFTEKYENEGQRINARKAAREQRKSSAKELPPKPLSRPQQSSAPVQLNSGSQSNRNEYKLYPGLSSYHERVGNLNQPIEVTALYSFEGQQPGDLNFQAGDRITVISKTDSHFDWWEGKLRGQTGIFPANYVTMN

B1: S4A antibody (antibody, V domains shown)
VH: EVQLLESGGGLVQPGGSLRLSCAASGFTFSSYSMNWVRQAPGKGLEWVSWISPNSGSTDYAQKFQGRFTISRDNSKNTLYLQMNSLRAEDTAVYYCARTPPGTPFDYWGQGTLVTVSS
VL: QSVLTQPPSASGTPGQRVTISCSGNNIGSKSVHWYQQLPGTAPRLLIYSTSNKHSGVPDRFSGSKSGTSASLAISGLHSEDEADYYCSSYTSSGTRVFGGGTKLTVLG
B2: 3E11 antibody (antibody, V domains shown)
VH: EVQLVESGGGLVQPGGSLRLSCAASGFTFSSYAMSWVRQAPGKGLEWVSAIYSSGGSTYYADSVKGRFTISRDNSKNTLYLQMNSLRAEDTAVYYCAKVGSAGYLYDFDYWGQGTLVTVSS
VL: DIQMTQSPSSLSASVGDRVTITCRASQDIANYLNWYQQKPGKAPKLLIYATSTLQSGVPSRFSGSGSGTDFTLTISSLQPEDFATYYCQQSYSSPWTFGQGTKVEIKR
B3: 4F10 antibody (antibody, V domains shown)
VH: EVQLVESGGGLVQPGGSLRLSCAASGFTFSDYAMSWVRQAPGKGLEWVSAIYSTGSSTYYADSVKGRFTISRDNSKNTLYLQMNSLRAEDTAVYYCAKVGWYLFDYWGQGTLVTVSS
VL: DIQMTQSPSSLSASVGDRVTITCRASQSISRYLNWYQQKPGKAPKLLIYATSRLQSGVPSRFSGSGSGTDFTLTISSLQPEDFATYYCQQSYSSPWTFGQGTKVEIKR
B4: 5D5 antibody (antibody, V domains shown)
VH: EVQLVESGGGLVQPGGSLRLSCAASGFTFSDYAMSWVRQAPGKGLEWVSSISSTGSTTYYADSVKGRFTISRDNSKNTLYLQMNSLRAEDTAVYYCAKVLYEYLYFDYWGQGTLVTVSS
VL: DIQMTQSPSSLSASVGDRVTITCRASQDIRNWLNWYQQKPGKAPKLLIYAASSLQSGVPSRFSGSGSGTDFTLTISSLQPEDFATYYCQQSYSSPWTFGQGTKVEIKR
B5: 4H7 antibody (antibody, V domains shown)
VH: EVQLVESGGGLVQPGGSLRLSCAASGFTFSTYGMSWVRQAPGKGLEWVSAISSSGGSIYYADSVKGRFTISRDNSKNTLYLQMNSLRAEDTAVYYCAKVSYPGLAFDIWGQGTLVTVSS
VL: DIQMTQSPSSLSASVGDRVTITCRASQTISNYLNWYQQKPGKAPKLLIYATSSLQSGVPSRFSGSGSGTDFTLTISSLQPEDFATYYCQQSYSSPWTFGQGTKVEIKR
B6: 4F9 antibody (antibody, V domains shown)
VH: EVQLVESGGGLVQPGGSLRLSCAASGFTFSDYAMSWVRQAPGKGLEWVSAIKSSGSSTYYADSVKGRFTISRDNSKNTLYLQMNSLRAEDTAVYYCAKAEYEYLAFDIWGQGTLVTVSS
VL: DIQMTQSPSSLSASVGDRVTITCRASQDISSWLNWYQQKPGKAPKLLIYATSTLQSGVPSRFSGSGSGTDFTLTISSLQPEDFATYYCQQSYSSPWTFGQGTKVEIKR
B7: 4G4 antibody (antibody, V domains shown)
VH: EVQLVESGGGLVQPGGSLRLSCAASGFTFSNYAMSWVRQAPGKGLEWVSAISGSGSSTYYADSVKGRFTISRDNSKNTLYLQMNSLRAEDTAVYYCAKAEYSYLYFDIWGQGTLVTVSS
VL: DIQMTQSPSSLSASVGDRVTITCRASQSISNWLNWYQQKPGKAPKLLIYAASRLQSGVPSRFSGSGSGTDFTLTISSLQPEDFATYYCQQSYSSPWTFGQGTKVEIKR

This is an account of results in patent publication US20260109755A1 (published 2026).

This test deals with T1, SH3 domain-containing YSC84-like 1 ….
Molecule B1 yielded a Kd of 2.06 nM.
B2: the affinity, expressed as Kd, was 3.56 nM.
To B3 belongs 0.404 nM; to B4, 5.49 nM.
To B5 belongs 3.43 nM.
To B6 belongs 3.63 nM; to B7, 2.96 nM.
